Measurements: patent US20240262917A1, “ANTIBODIES AGAINST ALK AND METHODS OF USE THEREOF” (Dana-Farber Cancer Institute, Inc., priority 2021, published 2024)
Entries after “also recorded” stand apart in the source; their conditions may differ.

How the values were obtained:
Format in all cases: binding
ALK = ALK (Homo sapiens, UniProt Q9UM73); assay: Western blot analysis of ALK in cell lysates and conditioned media; parameters: endogenous in cells; host or cells: human neuroblastoma lines (NGP, SH-SY5Y, Kelly and others)
From the text: (A) Western blot analysis of ALK in Kelly and SHEP neuroblastoma cells overexpressing GFP and mutated ALK using the mAb-7 and 8G7 anti-ALK antibodies. The mAb-7 antibody was developed at the Vigny laboratory (INSERM, Unité 706/Université Pierre et Marie Curie, Paris F-75005, France) (Moog-Lutz et al, 2005; PMID: 15886198) and obtained through a Materials Transfer Agreement. (B) Western blot analysis of ALK expression in various non-neuroblastoma cell lines: H1373 (human […]), HeLa (cervical cancer), NIH-3T3 (transformed mouse fibroblast cells) using 8G7 and C26G7 (rabbit monoclonal C-terminal anti-ALK antibody; Cell Signaling Technology; Cat #3333; RRID:AB_836862) anti-ALK antibodies.
The three HPLC-purified monoclonal antibodies (5H3, 7F7 and 8G7) all of the IgG1 subtype, were tested for their ability to bind to ALK in neuroblastoma cells expressing ALK. Both cell lysates and supernatants from cells grown with and without serum (to increase the expression of ALK) were tested by western blotting. […] (A) Western blot analysis of the indicated hybridoma clones in neuroblastoma cell lines expressing WT (NGP) and mutated (SHSY5Y, Kelly) ALK. NIH3T3 cells were used as controls. (B) Western blot analysis of conditioned media from NGP neuroblastoma and 293T cells engineered to express the WT ALK receptor, with the three ALK mAbs showing binding with the shed ALK extracellular domain. […]
Cell lysates were prepared in NP-40 buffer (Invitrogen) containing complete protease inhibitor (Roche), phosphatase inhibitor (Roche) and phenylmethylsulfonyl fluoride (PMSF). Lysates were incubated on ice for 20 min and centrifuged at 16,000 g for 15 min at 4° C. Protein concentrations of the supernatants were determined with the DC protein assay kit (Bio-Rad). Protein samples were denatured using NuPAGE LDS sample buffer (Invitrogen) and NuPAGE sample reducing agent (Invitrogen). Proteins were then separated on precast 4-12% Bis-Tris gels (Invitrogen) and transferred to nitrocellulose membranes (Bio-Rad). After blocking in blocking buffer (5% dry milk in TBS with 0.2% Tween-20), membranes were incubated with the primary antibody overnight at 4 °C, washed three times with TBST buffer, chemiluminescent detection performed with the appropriate secondary antibodies and developed using Genemate Blue ultra-autoradiography film (VWR).

ALK receptor [1] = assay: Immunocytochemistry and immunohistochemistry staining of ALK; details: 293T and NB9464 cells expressing WT ALK; tumor tissue from ALK F1174L/MYCN transgenic mouse model
From the text: (A). Immunocytochemistry staining with the 8G7 antibody of 293T and NB9464 (mouse neuroblastoma cells derived from Th-MycN transgenic tumor model; Weiss et al, 1997) cells expressing a control vector or WT ALK. 5×10^6 cells were fixed in 10% formalin and images captured using a Zeiss AXIO Imager Z1 fluorescence microscope following staining. (B) Immunohistochemistry of tumor tissue from the ALK F1174L/MYCN transgenic mouse model using the 8G7 antibody.

ALK receptor [2] = biological target: T1, ALK receptor (Homo sapiens, UniProt Q9UM73, F1174L); assay: Immunofluorescence detection of ALK
T1 construct: expressed in transfected cells; host or cells: SHEP neuroblastoma cells
From the text: (A) IF images (40×) of NGP neuroblastoma cells expressing wild type ALK stained with the 8G7 antibody. A 1:100 antibody dilution was used. […] The last plasmid serves as a negative control similar to NIH3T3-MSCV cells in which the vector only is expressed.
Immunofluorescence detection of ALK with 8G7 and 7F7 antibodies in SHEP NB cells engineered to express the ALKF1174L mutation. Staining with the M13 antibody obtained from the Vigny laboratory under an MTA is shown for comparison (Moog-Lutz et al, 2005). Cells expressing the vector only (SHEP) were used as controls. Cells were stained with a 1:100 dilution of antibody. Images were captured at 40× with a Zeiss AXIO Imager Z1 fluorescence microscope.
Cells (0.5×10^6 per well) were seeded into six-well plates and grown on glass coverslips for 24 hr. before fixation in 4% paraformaldehyde in PBS for 15 min at room temperature (RT), washed with PBS, permeabilized in 0.1% Triton X-100, and blocked with PBS containing 0.05% Tween-20 and 5% BSA for 1 hr. to block nonspecific binding. Then, cells were incubated with the 8G7 antibody (1:100) overnight at 4° C. After washing with PBS, cells were incubated with AlexaFluor 568-conjugated secondary antibody for 1 hr. at 25° C. Images were collected on a Zeiss AXIO Imager Z1 fluorescence microscope. […] After 24 hours, cells were washed once in PBS, fixed in 4% paraformaldehyde in PBS, washed, permeabilized in 0.1% Triton X-100, and blocked in PBS containing 10% horse serum. […] The next day, cells were washed, incubated in goat anti-rabbit IgG secondary antibody (1:1000) for 1 hr. washed, and incubated in Streptavidin-TexasRed (1:1000) for 1 hr. Cover slips were mounted onto slides using mounting medium containing DAPI. Images were collected on a Zeiss AXIO Imager Z1 fluorescence microscope.

T1 sequence (Q9UM73 19-1620 F1174L): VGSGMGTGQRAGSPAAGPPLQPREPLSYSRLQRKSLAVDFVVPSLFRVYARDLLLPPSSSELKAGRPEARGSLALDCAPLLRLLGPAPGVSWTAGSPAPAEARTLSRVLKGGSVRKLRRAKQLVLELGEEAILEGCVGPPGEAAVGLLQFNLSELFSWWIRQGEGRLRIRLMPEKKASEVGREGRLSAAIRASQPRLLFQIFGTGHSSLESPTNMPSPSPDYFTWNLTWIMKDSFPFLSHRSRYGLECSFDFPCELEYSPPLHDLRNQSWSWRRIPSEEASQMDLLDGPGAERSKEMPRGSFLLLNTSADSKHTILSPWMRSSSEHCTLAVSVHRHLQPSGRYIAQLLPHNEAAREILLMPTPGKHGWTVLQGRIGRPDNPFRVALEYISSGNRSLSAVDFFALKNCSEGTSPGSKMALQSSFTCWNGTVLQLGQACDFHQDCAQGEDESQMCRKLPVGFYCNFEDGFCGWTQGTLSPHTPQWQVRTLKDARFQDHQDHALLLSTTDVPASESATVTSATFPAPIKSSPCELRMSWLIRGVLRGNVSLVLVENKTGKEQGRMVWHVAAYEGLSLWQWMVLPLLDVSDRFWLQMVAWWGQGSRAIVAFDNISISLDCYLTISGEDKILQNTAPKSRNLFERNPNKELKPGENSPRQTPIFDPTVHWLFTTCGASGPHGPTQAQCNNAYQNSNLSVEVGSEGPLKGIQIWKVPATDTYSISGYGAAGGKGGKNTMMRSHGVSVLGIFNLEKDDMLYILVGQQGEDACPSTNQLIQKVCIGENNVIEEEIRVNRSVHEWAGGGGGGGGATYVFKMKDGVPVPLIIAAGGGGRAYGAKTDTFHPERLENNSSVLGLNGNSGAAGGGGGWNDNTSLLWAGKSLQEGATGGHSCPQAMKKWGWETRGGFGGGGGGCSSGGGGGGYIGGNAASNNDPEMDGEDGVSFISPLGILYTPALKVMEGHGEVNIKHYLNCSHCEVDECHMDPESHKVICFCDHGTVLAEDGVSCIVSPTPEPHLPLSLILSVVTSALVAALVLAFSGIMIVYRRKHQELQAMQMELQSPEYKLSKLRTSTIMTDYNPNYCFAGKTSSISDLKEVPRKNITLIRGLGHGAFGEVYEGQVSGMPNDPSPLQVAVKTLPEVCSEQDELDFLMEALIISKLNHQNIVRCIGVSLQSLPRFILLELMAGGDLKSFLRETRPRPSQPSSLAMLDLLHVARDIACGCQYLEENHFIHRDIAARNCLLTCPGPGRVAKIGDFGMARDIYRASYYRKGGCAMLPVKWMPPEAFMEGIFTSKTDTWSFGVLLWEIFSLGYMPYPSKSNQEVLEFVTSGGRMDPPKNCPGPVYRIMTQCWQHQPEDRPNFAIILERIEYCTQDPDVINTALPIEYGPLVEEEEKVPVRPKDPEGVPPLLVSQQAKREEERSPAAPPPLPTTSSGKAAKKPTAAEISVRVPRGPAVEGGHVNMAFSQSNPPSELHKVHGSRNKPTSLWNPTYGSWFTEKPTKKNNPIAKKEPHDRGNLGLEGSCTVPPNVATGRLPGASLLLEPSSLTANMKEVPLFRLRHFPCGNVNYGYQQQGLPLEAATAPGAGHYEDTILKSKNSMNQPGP
Sequence of ALK receptor (Q9UM73 19-1038 limits assumed): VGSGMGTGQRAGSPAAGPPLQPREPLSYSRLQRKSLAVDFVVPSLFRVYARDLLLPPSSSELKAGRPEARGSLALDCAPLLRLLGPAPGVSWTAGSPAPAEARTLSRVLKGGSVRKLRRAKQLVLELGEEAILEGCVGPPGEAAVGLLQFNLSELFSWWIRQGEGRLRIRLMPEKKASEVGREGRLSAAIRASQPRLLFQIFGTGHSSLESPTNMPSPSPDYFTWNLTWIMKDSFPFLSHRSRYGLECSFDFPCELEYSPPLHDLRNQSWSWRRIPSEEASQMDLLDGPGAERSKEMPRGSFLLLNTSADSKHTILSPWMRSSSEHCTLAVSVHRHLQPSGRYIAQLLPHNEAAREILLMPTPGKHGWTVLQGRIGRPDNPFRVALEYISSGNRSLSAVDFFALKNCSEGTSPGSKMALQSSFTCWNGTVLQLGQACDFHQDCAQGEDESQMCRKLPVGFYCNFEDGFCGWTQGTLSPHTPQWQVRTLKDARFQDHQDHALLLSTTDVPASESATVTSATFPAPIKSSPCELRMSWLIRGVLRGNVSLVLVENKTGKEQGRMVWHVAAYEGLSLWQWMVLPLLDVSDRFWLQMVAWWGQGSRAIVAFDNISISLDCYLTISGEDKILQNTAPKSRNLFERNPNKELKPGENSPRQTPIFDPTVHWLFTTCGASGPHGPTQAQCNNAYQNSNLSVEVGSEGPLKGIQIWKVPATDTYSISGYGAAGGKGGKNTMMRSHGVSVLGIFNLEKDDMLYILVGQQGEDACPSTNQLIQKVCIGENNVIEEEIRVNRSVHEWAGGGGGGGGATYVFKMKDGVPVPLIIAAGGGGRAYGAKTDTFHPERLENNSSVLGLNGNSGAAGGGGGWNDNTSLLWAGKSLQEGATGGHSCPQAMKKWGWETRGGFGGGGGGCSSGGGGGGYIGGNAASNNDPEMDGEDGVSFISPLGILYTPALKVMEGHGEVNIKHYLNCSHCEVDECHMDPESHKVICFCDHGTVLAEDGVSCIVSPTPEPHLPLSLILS

B1: 8G7: murine monoclonal IgG1 anti-ALK antibody to the N-terminal ECD of human ALK; VH SEQ ID NO: 3, VL SEQ ID NO: 4 (antibody, V domains shown)
VH: QVQLQQSGAELVRPGASVTLSCKASGYTFTDYEMHWVKQTPVHGLEWIGAIDPETGGSAYNQKFKAKAILTADRSSSTAYMELRSLTSEDSAVYYCTRTRYYGSSPAMDYWGQGTSVTVSS
VL: DIQMTQTTSSLSASLGDRVTISCSASQGIGNYLNWYQQKPDGTVKLLIYYTSSLHSGVPSRFSGSGSGTDYSLTISNLEPEDIATYYCQQYSKLPYTFGGGTKLEIK
ALK protein recognized by western blotting in cell lysates (ALK; cell lysates of neuroblastoma cells expressing ALK): recognized a 220 kDa protein in the cell lysates of neuroblastoma cells; also recorded: detected the 220 kDa full-length protein but not the 140 kDa fragment in cell lysates
ALK protein recognized by western blotting in media (ALK; conditioned media of NB cells, shed ECD domain): an approximately 100 kDa protein in the media; also recorded: ALK fragment with a molecular mass of approximately 100 kDa was identified in the conditioned media of all five NB cell lines
binding in immunocytochemistry and immunohistochemistry (ALK receptor [1]): showed binding in engineered cells and transgenic mice tumors
recognition of ALK lacking the majority of the ECD in immunofluorescence (ALK receptor [2]; NIH3T3-ALK-del MAM2 to 654 aa, negative control): not recognized
binding to the ALK receptor in immunofluorescence (ALK receptor [2]; SHEP NB cells engineered to express the ALKF1174L mutation, 1:100 dilution of antibody): bind to the ALK receptor in immunofluorescence assays
recognition of ALK at the cell surface (ALK receptor [2]; immunofluorescence, immunocytochemistry and immunohistochemistry): recognize ALK at the cell surface by immunofluorescence, immunocytochemistry and immunohistochemistry
